PMC10144504 (Cell, 2023)

Experiments:
[1] = target: mC-GCGR-31C-NBD (minimal cysteine GCGR labelled with NBD on the N-terminal helix of the ECD) (human) (UniProt P47871); assay: other fluorescence titration
[2] = target: mC-GCGR-345C-NBD (minimal cysteine GCGR labelled with NBD at the cytoplasmic end of TM6) (human) (UniProt P47871); assay: other fluorescence titration
[3] = target: Nanoluc-GCGR fusion protein (human) (UniProt P47871); assay: FRET or BRET
[4] = target: Human glucagon receptor (Q27-F477) (human, UniProt P47871 27-477); assay: pull-down
Chain of Human glucagon receptor (Q27-F477) (P47871 27-477): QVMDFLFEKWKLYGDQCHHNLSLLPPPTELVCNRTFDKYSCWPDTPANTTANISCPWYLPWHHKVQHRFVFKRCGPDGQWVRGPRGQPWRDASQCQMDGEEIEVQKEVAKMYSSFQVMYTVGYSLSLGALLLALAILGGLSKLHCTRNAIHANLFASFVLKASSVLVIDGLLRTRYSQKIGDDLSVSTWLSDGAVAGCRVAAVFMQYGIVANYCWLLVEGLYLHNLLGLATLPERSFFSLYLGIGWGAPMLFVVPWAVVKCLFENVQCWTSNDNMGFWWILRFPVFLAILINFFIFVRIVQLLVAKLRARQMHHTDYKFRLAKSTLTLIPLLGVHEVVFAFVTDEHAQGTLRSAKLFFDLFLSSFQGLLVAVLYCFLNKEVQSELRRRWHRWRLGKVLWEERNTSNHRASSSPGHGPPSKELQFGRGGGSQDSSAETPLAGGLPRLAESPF

Chain of Nanoluc-GCGR fusion protein (human) (P47871 26-477): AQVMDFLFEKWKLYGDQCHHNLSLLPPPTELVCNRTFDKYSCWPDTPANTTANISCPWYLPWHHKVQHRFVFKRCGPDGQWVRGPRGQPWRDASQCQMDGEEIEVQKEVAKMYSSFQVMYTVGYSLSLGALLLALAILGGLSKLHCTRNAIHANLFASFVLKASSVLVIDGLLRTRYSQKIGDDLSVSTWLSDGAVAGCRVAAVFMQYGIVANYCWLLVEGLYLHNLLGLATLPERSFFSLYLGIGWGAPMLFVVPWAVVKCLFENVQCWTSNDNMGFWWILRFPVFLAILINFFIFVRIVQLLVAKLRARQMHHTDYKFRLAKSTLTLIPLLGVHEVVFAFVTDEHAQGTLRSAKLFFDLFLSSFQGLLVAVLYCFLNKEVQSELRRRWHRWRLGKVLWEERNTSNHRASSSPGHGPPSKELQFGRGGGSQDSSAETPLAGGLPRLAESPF

human RAMP2 (residues 43-175) (from UniProt O60895 43-175) (natural protein)
EC50 [1]: 131 nM | EC50 [2]: 225 nM

Dasi-E21S-A17K(TAMRA) (peptide)
fold decrease in affinity with co-expressed RAMP2 against without RAMP2 [3]: 2.9 fold

B1: human RAMP2 (residues 43-175) (natural protein, UniProt O60895 43-175, looked up)
chain: QPLPTTGTPGSEGGTVKNYETAVQFCWNHYKDQMDPIEKDWCDWAMISRPYSTLRDCLEHFAELFDLGFPNPLAERIIFETHQIHFANCSLVQPTFSDPPEDVLLAMIIAPICLIPFLITLVVWRSKDSEAQA
binding result [4]: binds
